Experimental data reported in paper PMC12591191 (2025).
Where no end group is shown, it is not given here. The star is where a group is joined. Biotin = O=C1N[C@H]2[C@H](CS[C@H]2CCCCC(=O)*)N1; Myristoyl = CCCCCCCCCCCCCC(=O)*

Tests used:
SIRT6 H133Y [1] = biological target: T1, SIRT6 H133Y (human, UniProt Q8N6T7 1-355, H133Y); test: BLI; Mg2+
SIRT6 S56Y [2] = biological target: T2, SIRT6 S56Y (human, UniProt Q8N6T7 1-355, S56Y); test: BLI; Mg2+
SIRT6 R65A [3] = biological target: T3, SIRT6 R65A (human, UniProt Q8N6T7 1-355, R65A); test: BLI; Mg2+
T3 sequence (Q8N6T7 whole entry R65A): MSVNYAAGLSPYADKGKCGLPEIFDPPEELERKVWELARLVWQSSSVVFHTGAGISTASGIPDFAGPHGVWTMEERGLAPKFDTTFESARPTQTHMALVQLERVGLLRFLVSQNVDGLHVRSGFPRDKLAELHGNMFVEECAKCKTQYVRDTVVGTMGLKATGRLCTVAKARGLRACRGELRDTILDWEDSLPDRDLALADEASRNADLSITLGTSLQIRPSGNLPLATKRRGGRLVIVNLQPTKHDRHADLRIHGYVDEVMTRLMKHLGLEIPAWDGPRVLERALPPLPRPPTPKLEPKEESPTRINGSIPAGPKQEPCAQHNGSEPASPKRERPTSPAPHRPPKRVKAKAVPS

SIRT6 H133Y [4] = biological target: T1, SIRT6 H133Y; test: BLI
SIRT6 G60A = SIRT6 G60A (Homo sapiens); test: BLI
Sequence of SIRT6 G60A (Homo sapiens) (chain, as listed by the source G60A): as the sequence (Q8N6T7 whole entry R65A) above, with G60A, A65R counted along it

SIRT6 S56Y [5] = biological target: T2, SIRT6 S56Y; test: BLI
SIRT6 R65A [6] = biological target: T3, SIRT6 R65A; test: BLI

T2 sequence (Q8N6T7 whole entry S56Y): as the sequence (Q8N6T7 whole entry R65A) above, with S56Y, A65R counted along it
T1 sequence (Q8N6T7 whole entry H133Y): as the sequence (Q8N6T7 whole entry R65A) above, with A65R, H133Y counted along it

Kd (SIRT6 H133Y [1]): 680 nM
Kd (SIRT6 S56Y [2]): 610 nM
Kd (SIRT6 R65A [3]): 1800 nM
Kd (SIRT6 H133Y [4]): 3200 nM
Kd (SIRT6 G60A): 1300 nM
Kd (SIRT6 S56Y [5]): 1600 nM
Kd (SIRT6 R65A [6]): 2000 nM
Binder: Biotin-KQTARK(Myristoyl)STGGKARRRRR [B-H3K9^Myr-5R (biotin-KQTARK^MyrSTGGKARRRRR)]
